Reference: publication PMC4956256

Experiments:
[1] = molecular target: soluble CD4 receptor ligand, CD4-Fc (sCD4) (UniProt P01730); experiment: SPR; BIAcore 3000; about 200 RU of sCD4 immobilised directly on a CM5 chip by amine coupling; varying concentrations of gp120 injected at 100 ul/min; 25°C; PBS + 0.1% BSA; 1:1 Langmuir fit
[2] = molecular target: TV1.C gp120 monomer (HIV-1 subtype C, strain TV1.C); experiment: SEC + other: SDS-PAGE; purified TV1.C gp120; SDS-PAGE under reduced and non-reduced conditions; SEC-HPLC under non-reduced and reduced (otherwise native) conditions

Substance	Kd [1]	stoichiometry N [2]
1086.C gp120 monomer (natural protein)	26.6 nM	
TV1.C gp120 monomer (natural protein)	148 nM	2
